Test results from the supplement of paper PMC11780869.

Tested on: Bacillus subtilis
Test: cleaved RNA product abundance (RNA/gDNA barcode ratio) relative to median wild-type variant (ratio to wild type); higher = more accumulation of the downstream cleavage product
Procedure, shortened: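 Truncated aprE or tetM reporter mRNAs with barcoded RNase Y cleavage-site windows, mutagenized from oligos at a 9% error rate, sat in the B. subtilis chromosome. Cells grew in LB at 37°C from OD600 0.0003 to 0.3. Gel-selected cleaved RNA was reverse transcribed and its barcodes sequenced with those from genomic DNA, collapsing by UMI. Cleaved product abundance equals the RNA:gDNA barcode ratio per construct over the median construct with the unmutated site.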

[1] = experiment (reporter, strain, medium): exp 2b: truncated aprE reporter, strain BJT200, cleavage site: cggR-gapA (positions -7 to +36 mutated)
[2] = experiment (reporter, strain, medium): exp 4a: truncated aprE reporter, strain BJT201 with 2% xylose (RNase J1 expressed), cleavage site: cggR-gapA (positions -7 to +36 mutated)
[3] = experiment (reporter, strain, medium): exp 8a: truncated aprE reporter, strain BJT201 with 2% xylose (RNase J1 expressed), cleavage site: glnRA (positions -5 to +31 mutated)
[4] = experiment (reporter, strain, medium): exp 6: tetM reporter, strain 168, cleavage site: cggR-gapA (positions -7 to +36 mutated)

Sequence	cleaved RNA product abundance [2]	other results
ACAGACGAAGGAGCCGCAAAGAAGTTATTAAGGAATGAATAATCCCTCATTATAAATATCTCTCACTTATTTAAA	0.0579	cleaved RNA product abundance [1]: 0.102
ACAGACGAAGGAGCCGCAATGAAGTTATTAAGGTATGAATAATCCCTCAATATAAATATCTCTCACTTATTTAAA	0.146	cleaved RNA product abundance [1]: 0.109
ACAGACGAAGGAGCCGCAAATAAGTTATTAAGGGATGAATAATCCCTCAATATTAATATCTCTCACTTATTTAAA	0.156	–
ACAGACGAAGGAGCCGCAAAGAAGTAATTATGGGATGAATAATCCCTCAATATAAATATCTCTCACTTATTTAAA	0.169	–
CGACATGTCCCGCTTCTTTCATTACTCCGTTAGCAACTGTTTTGCAATATACATTTACCTTTTAAGAGGAGGAAT	–	cleaved RNA product abundance [3]: 0.515
CGACATGTCCCGCTTCTTTCATTAATCCGTTAGCAACTGTTTTTCTATATACATATACCTTTTAAGAGGAGGAAT	–	cleaved RNA product abundance [3]: 0.656
CGACATGTCCCGCTTCTTTCATTAATCCTTAGCACCTGTTTTGCTATATACATTATCCTTTTAAGAGGAGGAATT	–	cleaved RNA product abundance [3]: 0.144
ACAGACGAAGGAGCCGCAAAGAAGTTATTAAGGAATGTATAATCCCTCAATATAAATATCTCTCACTTATTTAAA	0.169	cleaved RNA product abundance [1]: 0.104
ACAGACGAAGGAGCCGCAAAGAAGTTATTAAGGGATGAATTAACCCTCAATATAAATATCTCTCACTTATTTAAA	0.492	–
CGACATGTCCCGCTTCTTTCATTACTCCGTTAGCAACTGTTTGGCTATATACATTTACCTTTTAAGAGGAGGAAT	–	cleaved RNA product abundance [3]: 0.644
ACAGACGAAGGAGCCGCAAAGATGTTATTAAGGGATGAATAATCCCTCAATATAAATATCTCTCACTTATTTAAA	0.996	cleaved RNA product abundance [1]: 0.938; cleaved RNA product abundance [4]: 1.01
ACAGACGAAGGAGCCGCAAAGAAGTTCTTAAGGGATGAATAATCCCTCAATATAAAAATCTCTCACTTATTTAAA	–	cleaved RNA product abundance [1]: 0.181
ACAGACGAAGGAGCCGCAAAGAAGCTATTATGGGATGAATAATCCCTCAATATAAATATCTCTCACTTATTTAAA	0.346	–
ACAGACGAAGGAGCCGCAAAGAAGTAATTAAGGGATGAATAATCCCTCAATATAGATATCTCTCACTTATTTAAA	0.303	–
ACAGACGAAGGAGCCGCAAATAAGTTATTAAAGGATGAATAATCCCTCAATATAAATATCTCTCACTTATTTAAA	0.218	cleaved RNA product abundance [1]: 0.195; cleaved RNA product abundance [4]: 0.19
ACAGACGAAGGAGCCGCAAAGAAGTTATTAAGGGATGAATAGTCCCTCAATATAAAAATCTCTCACTTATTTAAA	1	–
CGACATGTCCCGCTTCTTTCATTAATCCGTTATCAACTGTTTTGCTATATACATTTAACTTTTAAGAGGAGGAAT	–	cleaved RNA product abundance [3]: 0.291
ACAGACGAAGGAGCCGCAAAGAAGTTATTAAGGGATGAAGAATCCCTCCATATAAATATCTCTCACTTATTTAAA	0.273	–
ACAGACGAAGGAGCCGCTATGAAGTTATTAAGGGATGAATAATCCCTCAATATAAATATCTCTCACTTATTTAAA	0.952	–
ACAGACGAAGGAGCCGCAACGAAGTTATTAATGGATGAATAATCCCTCAATATAAATATCTCTCACTTATTTAAA	0.141	–
ACAGACGAAGGAGCCGCAAAGAACTTATTAAGGGATGAAAAATCCCTCAATATAAATATCTCTCACTTATTTAAA	0.521	–
ACAGACGAAGGAGCCGCAAAGAAGTTACTAAGGGATGAATAATCACTCAATATAAATATCTCTCACTTATTTAAA	0.177	–
ACAGACGAAGGAGCCGCAAAGAAGTTATTATGGGATGAATAATCCCTCAATTTAAATATCTCTCACTTATTTAAA	0.169	–
ACAGACGAAGGAGCCGCAAAGAAGTTATTAAGGGATGAATAATCCTTCAATATAAATATCTCTCACTTATTTAAA	0.576	cleaved RNA product abundance [1]: 0.442; cleaved RNA product abundance [4]: 0.617
ACAGACGAAGGAGCCGCAAAGAAGTTATTAAGGGATGAATAATCCCACAATATAAATATTTCTCACTTATTTAAA	0.386	–
